Reference: article PMC11297306 (Nature Communications, 2024)

Molecular target: EEEV virus-like particles (strain PE6) (eastern equine encephalitis virus, strain PE6)
Test: BLI

## VLDLRLBD-Fc fusion protein (from UniProt P98155-1 31-355)
  Kd: 0.0021 µM

## VLDLRLA1-Fc fusion protein (from UniProt P98155-1 31-69)
  Kd: 15.5 µM
